Results as given in the nanobody polyreactivity screen of Harvey et al. (2022).

Assay: yeast display, Sf9 membrane polyspecificity reagent, FACS + sequencing; frameworks hold sequencing errors
In short: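 Sorting gates, low and high (top ~1%), were placed on anti-HA fluorescence to track expression and on streptavidin fluorescence to track reagent binding. A clone's polyreactivity label is taken from the gate it came out of. The reagent was 10% biotinylated, detergent-solubilized Sf9 membrane, applied for 1 hour at 4 °C to galactose-induced yeast display cells.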

Sequence	polyreactivity (PSR sort gate)
QVQLGESGGGLVQAGGSLRLSCAASGSIFSNYAMGWYRQAPWKERELVATIRLSGGSTYYADSVKGRFTISRDNAKNTVYLQMNSLKPEDTAVYDCAARIHWPYWYARLDYWGQVTQVTVSS	high polyreactivity
QVQLVESGGGLVQAGGSLRLSCAASGGIFKRNTMGWYRLAPGKERELVAAISRSGGSTYYADSVKGRFTISRDNAKNTVYLQMNSLKPEDTAVYYCARRFPYNYYVYGEDYWGQGTQVTVSS	high polyreactivity
QVQLVESGGGLVQAGGSLRLSCAASGITIYRNAMGWYRQAPGKEMELVAAITRNGGRTYYADSVKGRFTISRDNAKNTVYLQMNSLKPEDTAVDYCAADSGTRNLASYRYYYWGQGTQVTVSS	high polyreactivity
QVQLVESRGGLVQAGGSLRLSCAASGYIFGDYAKGWYRQAPGKERELVAAITQTGGNTYYADSVKGRFTISRDNAKKTVYLQMNSLKPEDTAVYYCAAPALGNYFYGYDYWGQGTQVTVSS	low polyreactivity
QVQLVESGGGLVQAGGSLRLSCAASGSTFFGYAMGWYRQAPGKERELVATISSGDSTNYADSVKGRFTISRDNAKNTVYLQMNSLKPEDTAVYYCAAQGGDGVLALYYYWGQGTQVTVSS	low polyreactivity
QVQRVESGGGLVQAGGRLLLSCAASGSIFPPNAMGWYREAPGKERELVAAISGSGRTYYADSVKGRFTISRDNAKNTVYLQMNSLKPEDTAVYYCAARQQRRPTTRDFGFWGQGTQVTVSS	high polyreactivity
QVQLQESAGGLVQAGGSLRLSCAASGTISTDSYMGWYRQAPGKERKFVATIGYGGITYYADSVKGRSTISRDSAKNTVYLQMNSLKPEDTAVYYCAVNSYYPDHYWYWGRGTQVTVSS	high polyreactivity
QVQLVESGGGLVQAGGSLRLSCAASGSIFGTNTMGWYRQAPGKERELVAAIRLSDSSTYYADSVKGRFTISRDNAKNTVYLQMNSLKPEDTAVYYCAVDYRAYHYYRYDYWGQGTQVTVSS	low polyreactivity
QVQLVESGGGLVQAGGSLRLSCAASGSIFRSYAMGWYRQAPGKERELVAGISYSGGSTYYADSVKGRFTISRDNAKNTVYLQMNSLKPEDTAVYYCNTRTGAFFLSKPYDYWGQGTQVTVSS	low polyreactivity
QVQLVESGGGLVQARGSLRLSCAASGSIFDDYAMGWYRQAPGKERELVAAISSSGTSTYYADSVKGRFTISRDNAKNTVYLQLNSLKPEDTAVYYCAARSAILKSGYLMEYWGEGTQVTVSS	low polyreactivity
QVQLVESWGGLVQAGGNLRLSCAASGFIFTRYAMGWYRPAPGTERELVAAISTSGDRTYYADSVKGRFTISRDNAKNTVYLQMNSLKPEDTAVYYCAVVRPRSVVRYDYWGQGTQVTVSS	high polyreactivity
QVQLVESSGGLVQAGGSLRLSCAASGFNFKRYAMGWSRQAPGKEREMVAAINSGGSTNYADSVKGRFTISRDNAKNTVYLQMNSLKPEDTAVYYCAASTSRYYWYALRDYWGQGTQVTVSS	high polyreactivity
QVQLVESGGGLVQAGGSLRLSCAASGNIFGHYTRGWYRQAPAKERELVAAISRTGGRTYYADSVKGRFTISRDNAKNTVYLQMNSLKPEDTAVYDCDADKGGTYFNGDSWGQGTQVTVSS	high polyreactivity
QVQLVESGGGLVQAGGSLRLSCAASGRIFHSKAMGWYRQAPGKERELVAAITWSTGRTYYADSVKGRFTISRDNAKNTVYLQMNSLKPEDTAVYYCFRFSYYTGDYWGQGTQVTVSS	high polyreactivity
QVQLVESGGGLVQAGGSLRLSCTASGGIFRYYAMGWYRPAPGKERELVAGISRSGGSTHYADSVKGRFTISRDNAKNTVYLQMNSLKREDTAVYYCAADTYFTKYDYWGQGTQVTVSS	high polyreactivity
QVQLVESGGGLVQAGGSLRLSCAASGNTFQRYTMGWYRQAPGKERELVAAINSSGGSTFYADSVKGRFTISRDNAKNTVYLQMNSLKPEDTAVYYCAASWHTPTVYDEYYYWGQGTQVTVSS	low polyreactivity

Sequence	polyreactivity (PSR sort gate)
QVHLVESGGGLVQAGGSLRLSCAASGRIFRTYAMGWYRQAPGTERELVASITTSSDSPYYADSVKGRFTISRDNAKNTVYLQMNSLKPEDTAVYYCAADGDHPWWSQYDYWGQGTQVTVSS	low polyreactivity
QDQLVDSGGGLVQAGGSLRLSCDASGIFDYYVMGWYRQAPGTERELVAAISKSVGSTYYADSVKGRFTISRDNAKNTVYLQMNSLKPEDTAVYYCAVENRYRFGYWGQGTQVTVSS	low polyreactivity
QVQLVESGGVLVQAGGSLRLSCAASGFIFSEYAMGWYRHAPGKERELVAAISRSGGRTYYADSVKGRFTISRDNAKNTVYLQMNSLKPEDTAVYYCAAVWWWYYNHYYYWGQGTLVTVSS	high polyreactivity
QVQLVESGGGLVQAGGSLRLSCAASGRIFRTYAMGWYRQAPGKERELVAAISYSGGSTFYADSVKGRFTISRDNAKNTVYLQMNSLKPEDTAVYYCAADSRAKRYYWGQGTQVTVSS	high polyreactivity
QVQLVESGGGLVQAGGSLRLSCAASGLTFQTNAMGWYRQAPGKERELVAAISRRGSSTYYADSVKGRFTISRDNAKNTVYLQMNSLKPEDTAVYYCNAVRYLFIYPRYDYWGQGTQVTVAS	high polyreactivity
QVQLVESGGGLVQAGGSLRLSCAASGSIFPVYAMGWYRQAPGKERELVAAINSSGGTTYYADSVKGRFSNSRDNAKNTVYLQMNSLKPEDTAVYYCAAEICTSSYLAKTYDYWGQGTQVTVSS	low polyreactivity
QVQLVESGGGLVQAGGSLRLSCAASGRIFRLYAMGWYRQAPGKEREFVATITWIGGRTYYADSVTGRFTISRDNAKNTVYLQMNSLKPEDTAVYYCAADPGYTYEYWGQGTQVTVSS	low polyreactivity
QVQLVESGGGLVQAGGSLRLSCAASGRIFRYYAMGWYRQAPGKERELVAGISRSGGRTYYADSVKGRFTISRDNAKNTVYLQMNSLKPEDTAVYYCNASRGYPYHYDYWGQGTQVTVSS	high polyreactivity
QVQLVESGGGLVQAGGSLRLSCAASGNIFYDYGMGWYRQAPGKERELVAGISSVDHTYYADSVKGRFTISRDNAKNTVYLQMNSLKPEDTAVYYCARDTELYVRWLDYWGQGTQVTVSS	low polyreactivity
QVQLVESGGGLVQAGGSLRLSCAASGSTFWYYGMGWYRQAPGKERELVAAITRGGSTYYADSVKGRFTISRDNAKNTVYLQMISLNPEDTAVYYCAAGISVRWSPSYYYWGQGTQVTVSS	high polyreactivity
QVQLEESGGGLVQAGGSLRLSCAASGSTFKTYASGWYRQAPGKERELVAAISWSGGSTYYAESVKGRFTISRDNAKNTVYLQMNSLKPEDTAVYYCNAGWGYPSPWFIGEYWGQGTQVTVSS	low polyreactivity
QVQLVESGGGLVQAGGRLRLSCAASGSTFGLNAMGRYRHAPGKEREFVASINFNDGSTYYADSVKGRFTISRDNAKNTVYLRMNSLKPEDTAVYYCAVELWWKWPFYYWGQGTQVTVSS	high polyreactivity
QVQLVESGGGLVQAGGSLRLSCAASGRTFVDYVMGWYRQAPGKERELVAAISRSGSTYYADSVKGRFTISRDNAKNTVYLQMNSLKPEDTAVYYCAASSVALPWYVSWYVYGYEYWGQGTQVTVSS	low polyreactivity
QVQLVESGGGLVQAGGSLRLSCAASGSTFRSNAMGWYRQAPGKERELVAAIRYSGGSTYYADSVKGRFTISRDNAKNTVYLQMNSLKQEDTAVYYCATRFRTYYVDHGYWGQGTQVTVSS	high polyreactivity
QVQLVESGGGLVQAGGSLRLSCADSGSTLIGNAMGWYRQAPGKERELVAAISSGGRTYYADSVKGRFTISRDNAKNTVYLQMNSLKPEDTAVYYCAADTVGTNVVSPELDYWGQGTQVTVSS	low polyreactivity
QLQLVESGGGLVQAGGSLRLSCAASGRIFDGNTMGWYRQAPGKERELVAAITYSGGRTSYADSVKGRFTISRDNAKNTVYLQMISLKPEDTAVYYCNARVVTGSWYEGYYWGQGTQVTVSS	low polyreactivity
